From patent publication US20240415886A1

B1: inventive TCR specific for the mutated p53^R175H peptide in the context of HLA-A2, with murine alpha and beta constant regions, expressed from lentiviral … (TCR, V domains shown)
V domain 1: GIQVEQSPPDLILQEGANSTLRCNFSDSVNNLQWFHQNPWGQLINLFYIPSGTKQNGRLSATTVATERYSLLYISSSQTTDSGVYFCAVNQAGTALIFGKGTTLSVSS
V domain 2: EPEVTQTPSHQVTQMGQEVILRCVPISNHLYFYWYRQILGQKVEFLVSFYNNEISEKSEIFDDQFSVERPDGSNFTLKIRSTKLEDSAMYFCASMGTGDEAFFGQGTRLTVVE
B2: inventive TCR specific for the mutated p53^R175H peptide in the context of HLA-A2, with murine alpha and beta constant regions, expressed from lentiviral … (TCR)
TCR alpha: GIQVEQSPPDLILQEGANSTLRCNFSDSVNNLQWFHQNPWGQLINLFYIPSGTKQNGRLSATTVATERYSLLYISSSQTTDSGVYFCAVNQAGTALIFGKGTTLSVSSNIQNPEPAVYQLKDPRSQDSTLCLFTDFDSQINVPKTMESGTFITDKTVLDMKAMDSKSNGAIAWSNQTSFTCQDIFKETNATYPSSDVPCDATLTEKSFETDMNLNFQNLSVMGLRILLLKVAGFNLLMTLRLWSS
TCR beta: EPEVTQTPSHQVTQMGQEVILRCVPISNHLYFYWYRQILGQKVEFLVSFYNNEISEKSEIFDDQFSVERPDGSNFTLKIRSTKLEDSAMYFCASMGTGDEAFFGQGTRLTVVEDLRNVTPPKVSLFEPSKAEIANKQKATLVCLARGFFPDHVELSWWVNGKEVHSGVSTDPQAYKESNYSYCLSSRLRVSATFWHNPRNHFRCQVQFHGLSEEDKWPEGSPKPVTQNISAEAWGRADCGITSASYQQGVLSATILYEILLGKATLYAVLVSTLVVMAMVKRKNS

Tests used:
[1] = biological target: p53^R175H/HLA-A2 tetramer labeled with PE (p53^R175H peptide … with Flex-T HLA-A*02:01 monomer, Biolegend cat #280003) (human); assay: flow cytometry, PE tetramer staining of gated CD8+GFP+ TCR-transduced primary T cells
[2] = biological target: mutated p53^R175H peptide (…) presented by HLA-A2 on target cells (human); assay: cell-based or functional assay

Binder | percent of cells binding tetramer [1] [%] | avidity (lowest activating peptide concentration), CD8+ primary T cells against CD8-negative JRT cells [2] [fold] | percentage of CD8+CD137+ cells in the gated GFP+ cells [2] [ng/mL] | percentage of CD69+ cells in the gated GFP+ JRT cells [2] [ng/mL]
B1 | 82.9 | – | – | –
B2 | – | 10 | 1 | 10
